Source: patent publication US20070059309A1

Assays:
[1] = target: lymphoblastoid interferon (NIH reference Ga23-901-532)
[2] = target: leukocyte interferon (Sigma Product No. I-2396); experiment: cell-based or functional assay

- EC50 (read off the bars); loss of protection by 3 IU/ml lymphoblastoid interferon, cytopathic effect [1]: 3 ng/mL
- EC50 (read off the bars); loss of protection by 10 IU/ml lymphoblastoid interferon, cytopathic effect [1]: 5 ng/mL
- neutralization of anti-viral activity [2]: > 95%
B1: murine anti-human IFN-α monoclonal antibody 9F3 (antibody, IgG2, V domains shown)
VL: DIVLTQSPASLAVSLGQRATISCRASQSVSTSSYSYMHWYQQKPGQPPKVLISYASNLESGVPARFSGSGSGTDFTLNIHPVEEGDTATYFCQHSWGIPRTFGAGTKLELRRAV
VH: EVQLQQSGPELVKPGASVKISCKTSGYTFTEYIIHWVKQGHGRSLEWIGSINPDYDITNYNQRFKGKATLTLDKSSRTAYLELRSLTSEDSAVYYCASWISDFFDYWGQGTTLMVSAAS
